± gives the half width of the 95% confidence interval.
Assays:
[1] = folding stability dG unfold from trypsin proteolysis; higher = more stable
How it was run: (§1)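 Mini-proteins designed to be under 80 residues and free of cysteine were carried in a PA-tagged cDNA display construct and digested with trypsin and with chymotrypsin. Each protease was applied at 11 threefold-diluted concentrations, alongside a no-protease condition, before sequencing. K50 came from Bayesian fitting of the sequencing counts, and unfolding free energy was obtained by comparing it with a sequence-predicted unfolded-state K50 and a shared folded-state K50, for each protease separately or for both together. Designs were retained only if their AlphaFold2 dimer inter-PAE exceeded 15.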

[2] = folding stability dG unfold (combined trypsin and chymotrypsin); higher = more stable
How it was run: as §1

[3] = folding stability dG unfold from chymotrypsin proteolysis; higher = more stable
How it was run: as §1

| Sequence | folding stability dG unfold [1] [kcal/mol] | folding stability dG unfold [2] [kcal/mol] | folding stability dG unfold [3] [kcal/mol] |
| --- | --- | --- | --- |
| SAGGSAGGSASTTVTYVEIKVTNPNPPGTPVAEYLIPLSEITEEMIEKLEKEGGLKVEVTVVLSAGGSAGGS [r12_398_JUSTAS] | 1.2 ± 0.12 | 1.41 ± 0.058 | 1.44 ± 0.033 |
| SAGGSAGGSASVKELAEKLAEPGQTVMVIKRDGKEYLIVMSDEEAEALRKLFPDMEIERVRLSAGGSAGGSA [r18_198_TrROS_Hall] | 1.59 ± 0.02 | 1.81 ± 0.062 | 1.93 ± 0.023 |
| SAGGSAGGSASVTVSPTPDDTWRVEVTETRYFFDPDGRPIGPVTITSSRVVSSEEEAAALLSAGGSAGGSAG [r3_232_JUSTAS] | 0.537 ± 0.038 | 0.49 ± 0.15 | 0.397 ± 0.15 |
| SAGGSAGGSASVTVVPSPGPTTTVVTFSPDDTVTVTTHTVDPSAATSTPTTTTVSLSDPAAASAGGSAGGSA [r18_503_JUSTAS] | 2.08 ± 0.044 | 1.73 ± 0.03 | 1.44 ± 0.015 |
| SAGGSAGGSASWITITGLLPGGRLVTTRYDPSTGSVSTETTPIPPVPAFPLGPENLALNFLLSAGGSAGGSA [r18_236_JUSTAS] | 0.706 ± 0.044 | 0.746 ± 0.13 | 0.528 ± 0.19 |
| SAGGSAGGSASYIPVTYSFFFPDKPYVERVEAEYELGPDGTPRILSAKVEVFPVDFSPDELSAGGSAGGSAG [r3_138_TrMRF] | 0.823 ± 0.039 | 0.663 ± 0.068 | 0.279 ± 0.16 |
| SAGGSAGGSATITITVDGKTITLEVPEDSEVEIVFDEKTGKLFIKDKKTNKVYEVSLEELLSAGGSAGGSAG [r3_137_TrROS_Hall] | 3.58 ± 0.22 | 3.92 ± 0.13 | 3.98 ± 0.15 |
| SAGGSAGGSATRVEVEWKDGYLVITKYETLPNGEWKEVKTIVIPIEGNDPIAIEKAKEVIEKLSAGGSAGGS [r12_169_JUSTAS] | 2.89 ± 0.051 | 2.9 ± 0.064 | 2.89 ± 0.049 |
| SAGGSAGGSATTVTVESDPATGTRFVYETDEKNPGLLKVTKVTTLPDGSVVVETGYISPEKLSAGGSAGGSA [r18_505_JUSTAS] | 1.45 ± 0.051 | 1.61 ± 0.11 | 1.74 ± 0.043 |
| SAGGSAGGSATVTVTETNEDGEETTTEVEVFEVKPPPAPVLKVEAVIDPETNELVDVKVELFASAGGSAGGS [r12_539_TrROS_Hall] | 1.36 ± 0.1 | 0.784 ± 0.14 | 0.201 ± 0.14 |
| SAGGSAGGSAVAEEFKKKFPDKTVTVEAFTFERTVTHPDGGSSTERVTVLNVTVSSSDDPGSAGGSAGGSAG [r3_358_TrMRF] | 1.35 ± 0.071 | 1.96 ± 0.11 | 2.15 ± 0.1 |
| SAGGSAGGSAVETLVTYEVPEDLPPDSLSPEAVIARFAPLGVPTEVVEIDPATGTVTVRTLVPSAGGSAGGS [r12_733_JUSTAS] | -0.377 ± 0.13 | 0.664 ± 0.047 | 1 ± 0.037 |
| SAGGSAGGSAVPFVLPDGYVLEVEPDPETGLYRIRVTSPDGRTYEFTAPPDVPLADIPVVIDDSAGGSAGGS [r12_261_TrMRF] | 2.89 ± 0.059 | 2.95 ± 0.053 | 2.96 ± 0.034 |
| SAGGSAGGSAVRTIFIPGGNIKDIIELIKSDPGQPVQIHAPDGWVIKITGDKDIDIHPFPDSAGGSAGGSAG [r3_269_TrROS] | -0.44 ± 0.2 | 0.216 ± 0.15 | 0.337 ± 0.084 |
| SAGGSAGGSAVTIYIPWDEILEELGLPPEDVEYKPMKNGSYSFKYKNGKPVTIIMPPEDFKSAGGSAGGSAG [r3_477_TrROS] | -0.12 ± 0.29 | 0.663 ± 0.19 | 1.07 ± 0.2 |
| SAGGSAGGSAVVALTPDGALAVWFPEKGVVVVYNPATGTYTVLTVDADNTVTLEDVPPNTDVFSAGGSAGGS [r12_997_TrMRF] | 1.46 ± 0.032 | 1.34 ± 0.057 | 1.13 ± 0.07 |
| SAGGSAGGSDDDENQKENQKAKPIKLEPIVEITVPYPDGFSLTVPIWRWPDGGIGIELEIFPLGSAGGSAGG [r6_326_TrROS] | 0.867 ± 0.071 | 1.3 ± 0.37 | 1.44 ± 0.045 |
| SAGGSAGGSDDMIPIPFKIKLKDPNGKPHEFPVTIWINPEDGMIMIRYPNQPIMIDPDKIEIESAGGSAGGS [r20_48_TrROS] | 0.975 ± 0.089 | 1.01 ± 0.16 | 1.07 ± 0.19 |

Source: the supplement of paper PMC12764529
